Experiment: soluble on expression in E. coli; label from the status in PepcDB or PDB records

Sequence | soluble on expression in E. coli
SPASGPGPRRVQRRAWPPDKEQEKEKKSVICVEGNIASGKTTCLEFFSNATDVEVLTEPVSKWRNVRGHNPLGLMYHDASRWGLTLQTYVQLTMLDRHTRPQVSSVRLMERSIHSARYIFVENLYRSGKMPEVDYVVLSEWFDWILRNMDVSVDLIVYLRTNPETCYQRLKKRCREEEKVIPLEYLEAIHHLHEEWLIKGSLFPMAAPVLVIEADHHHMERMLELFEQNRDRILTPENRKHCP | soluble
MKWDEYVDIFDTDVVSKIIILRNLPINEGWIDINELAEELQLNKKSVKKYVELLKDDITYYVVDNDASLAFEKGHGYRLNLASSQAFQKLYTAIFRDSLTYQVMEDLFWGRFNGIVPATAKYHTSDATIRRLLKGFTEILAPLGLVINKSTWKIEGNEAYLRHFAYTIFMDLIRDTWPFDYIQETEVAQTVQKMMAFFNVEVAETVTRRVKYMVAISKVRSAQGAEYRPSAEQETYLEGNKHYQAFIEEMTATTLFLNKNDLTFVYFFLLANDQFYQDEATAQAILAHFDETEAPVYMLTHLVQHFLLEEIHMTPQLEKIRPQIFYYLFATHLFAELYYVQNVKMYNVFWNKIKEKYPVLLAELIQGLNQLYEQTGNELFTNKEFLALRYSSVLALSNDLIHREQKIVLGLKSGLPVLEEERVKLSIENNFRRFYALEVLRYSEASKEEWQNIDLLLVTSLADVETGHPEIFLFSSELTFEQYNRLNQKIVKINEKRTTSL | not soluble
MASTPRIVIIGAGIVGTNLADELVTRGWNNITVLDQGPLNMPGGSTSHAPGLVFQTNPSKTMASFAKYTVEKLLSLTEDGVSCFNQVGGLEVATTETRLADLKRKLGYAAAWGIEGRLLSPAECQELYPLLDGENILGGLHVPSDGLASAARAVQLLIKRTESAGVTYRGSTTVTGIEQSGGRVTGVQTADGVIPADIVVSCAGFWGAKIGAMIGMAVPLLPLAHQYVKTTPVPAQQGRNDQPNGARLPILRHQDQDLYYREHGDRYGIGSYAHRPMPVDVDTLGAYAPETVSEHHMPSRLDFTLEDFLPAWEATKQLLPALADSEIEDGFNGIFSFTPDGGPLLGESKELDGFYVAEAVWVTHSAGVAKAMAELLTTGRSETDLGECDITRFEDVQLTPEYVSETSQQNFVEIYDVLHPLQPRLSPRNLRVSPFHARHKELGAFFLEAGGWERPYWFEANAALLKEMPAEWLPPARDAWSGMFSSPIAAAEAWKTRTAVAMYDMTPLKRLEVSGPGALKLLQELTTADLAKKPGAVTYTLLLDHAGGVRSDITVARLSEDTFQLGANGNIDTAYFERAARHQTQSGSATDWVQVRDTTGGTCCIGLWGPLARDLVSKVSDDDFTNDGLKYFRAKNVVIGGIPVTAMRLSYVGELGWELYTSADNGQRLWDALWQAGQPFGVIAAGRAAFSSLRLEKGYRSWGTDMTTEHDPFEAGLGFAVKMAKESFIGKGALEGRTEEASARRLRCLTIDDGRSIVLGKEPVFYKEQAVGYVTSAAYGYTVAKPIAYSYLPGTVSVGDSVDIEYFGRRITATVTEDPLYDPKMTRLRG | soluble
KKVCACPKILKPVCGSDGRTYANSCIARCNGVSIKSEGSCPTGI | soluble
MGSDKIHHHHHHMYNLGKGVQECTETSLLTALGGMERRNLSELDTTLTSDNLPVVSHDFNTWRISTLPDRLIRELHSADVKNIPVIIREVSNGEITESYTVTNDIIPFLEPLLDKVFDVNPGATFFLDGRDFEAHIITAWLSRRPKYRQRVVLLFYTFEYSSGEAFFDAVKQVSPEPDWRETVALMPVIFPQELPRLAKLIDLSDIAVEDLYEGGKIWIDSMLRQPMRVVAVHIVMARVKPEQLGLCDKPEIVRAFNADYAAVRLAYYVKDNPEVRKMRPHLKLATATRCYDFSAQLENGEKAEFSINIRTGRPMPRETDERKYIRRGYGIPGNAAAIADWVISDRSEDEMSFWEWRNKGVPRRVDHHCPHLDVIEQDGKSVP | not soluble
MAHHHHHHMASSSDADGKEVGSSGEGNRATGGKWRRPSLAQQRARRAQLPPAFDVVHWNDEDISRGHLLRVLHRDTFVVLDYHRQARMLTEEGNKAERVVSVMLPAVYTARFLAVLEGRSEKVEVHSRYTNATFTPNPAAPYTFTLKCTSTRPAQQKQQVAGEEGDETFEWTVEFDVAESLMLQRFLTQALHYNTGFARTSV | soluble
MATLRIGLVSISDRASSGVYQDKGIPALEEWLTSALTTPFELETRLIPDEQAIIEQTLCELVDEMSCHLVLTTGGTGPARRDVTPDATLAVADREMPGFGEQMRQISLHFVPTAILSRQVGVIRKQALILNLPGQPKSIKETLEGVKDAEGNVVVHGIFASVPYCIQLLEGPYVETAPEVVAAFRPKSARRDVSE | soluble
MTSQRCRRRYFMMIRERIEEKLRAAFQPVFLEVVDESYRHNVPAGSESHFKVVLVSDRFTGERFLNRHRMIYSTLAEELSTTVHALALHTYTIKEWEGLQDTVFASPPCRGAGSIALEHHHHHH | not soluble
MAHHHHHHMRRSSSCLYKIPKNTGVAPRFDTWNEKYEPWEHLKRMGRLAGTGFYIPPEWYNHFRMFPPINHNFQQEKTLNPHNVSEPTQDDTDYLSVERIALRDELARKSRLLASEGMRYYNVFWIRKPLDRMERHYYELERKGVAHSVAIKRVLQMFYDELTVKKRVAAIQAEEAKLSGKYISMREATVLMGVLTQLQKEQLTPHQVTLLAKEQREKAQAGEAFAATVERSTETVADAAKDAAEGDEVMSADSLAELLSTEADLDDSSPSISYKVTIHETEHDSVKQLQELALDHTGKSDWYTGASPVLHMEEAMPAKRTPASKKTES | not soluble
MGSDKIHHHHHHMSTNLRRIQKIKGGSYIVSLPSDWVRENGLDVSREVEVFESSGIIKIRPKKDFNFERIIDFTDEETAEYLTSVYYMQGMTKITIQSKDVISRDVKDKIKMLQLELPGLNLKEESFNSITFEVDEEILKVQDSFFDFSNKALSILKDVTKIIETPREDMKQDLTSRCLALNSDYFKLIRSIALTVQRDDKYKLDVPVKDIILYAVASRDLGRFITHTRLLIGNIKQEDMKMRDQVLLLINTMENIITMFKTEDINMASRIRKNAHEILESVKSTSEANKELERMTGYALALMDDAVHKAVHL | not soluble
MSLHDVRVYHVQQPMRVGFGHPAATRTTSESVVLELDISGCVGLGECAPRSYVTGETCVTVCDALRSLPLARIIDELLSESPNDVLYRIKRLGIEAAFDFTAANNVVCIVELAILDWIGKRTRVSLDAMLRNGASLAESSAPIKISQVLDQNLTVDDFLRERGPFHFVKIKAHRDRAKDLETVTEIRRAIGDDTPIVIDANMSWSLIEAVEHVRKLREAGLTMVEEPFSKRSWTELHELRVQTGISIMLDESVSTLDDLRRAIGSDSCDAVNVRVSKCGGVLRSIEMIELAKSFGIQFQIGVQVAECGPLIQAGRLLASLHRDAIAVEGGQADRFFDSMIVSPDLSFDRARSTVPPPAGFGLGLSTSTEISKYLAFGYSRSADEWTATSHYTEAEGHHHHHH | soluble
MGRLSEVFEVRERYVPQIGRPSYLLVSLPDAGLVGSISGEFLINYLNLREYGEIYSNKHLPPISHVVNGVAKSPIRLYHYDNFLLLHSWIAIPANSINHLANLVVSYAEKYGIQTIISITGVPVPNRLDLEKPTPYWVASSEDFAKELDSLNLMKKFVEGYVSGPYAPILFQSAKKLIRNLLIVVESFLDLPDPEAAAVALDILSKMLGFKVDTSSLLKEAEEIRERIKGLMQQTRQELPNYSGLRPSTYA | not soluble
MIIKKIIDLTMPITAQTPVYPGDPKPKIEPAATFAQDGYHVSRLVLGSHSGTHVDAPFHFCEHGWRLDDVPLTYFLGRGVVIDATGKAEGEAVTMADAAPYIPKLSPGTIVLFHTGWSQYAGTKRYFRHPYVAPDVIEAMLERGVRTFLIDALNIDPPDGSLFHAHELILGANGVIGENFVNFERIDFDDPYIIALPLSLPGCERFARSGGGGAVGVTKKGDTAPHML | not soluble
DTVANASGPLMVEIVKTPGSALGISLTTTSLRNKSVITIDRIKPASVVDRSGALHPGDHILSIDGTSMEHCSLLEATKLLASISEKVRLEILPVPQSQRPLRPS | soluble
MGEVQREKVAVIIGPTAVGKTKLSIDLAKALNGEIISGDSMQIYRTMDIGTAKVTKAEMDGIPHYMIDIKNPEDSFSVAEFQERVRKHIREITERGKLPIIVGGTGLYIQSVLFDYQFTDDAGDVIYREQREKLALERGVEYVHEKLQEVDPESAERIHANNVRRVIRALEIFHTTGEKMSEQIEKQEKELLYDVSLIGLTMDREMLYDRINLRVDLMMEQGLLEEVEGLYNRGIRDCQSIQAIGYKEIYDYFENRASLEDAVSQLKTNSRRYAKRQLTWFRNKMDVTWFDVTDGEKTSEILRYIEGKLQVKSNNSKLEHHHHHH | soluble
MAHHHHHHSLIQAVLFDLDGTLADTALDLGGALNTLLARHGLPAKSMDEIRTQASHGAAGLIKLGAGITPDHPDYARWRTEYLDEYDSRYAQDTTLFDGVNELIAELGKRGIKWGIITNKPMRFTDKLVPKLGFIIPPAVVVSGDTCGEPKPSVKPMLYACGQIHADPQHTLYVGDAERDIQAGRNAGMTTVLAEWGYIAPEDDTGSWQADFHIRTPLDLLECLDKIQPEG | soluble
MGSDKIHHHHHHENDPPLSSCGIFQSRIAGDALLDSGIRISSVFASPALRCVQTAKLILEELKLEKKIKIRVEPGIFEWTKWEAGKTTPTLMSLEELKEANFNIDTDYRPAFPLSALMPAESYQEYMDRCTASMVQIVNTCPQDTGVILIVSHGSTLDSCTRPLLGLPPRECGDFAQLVRKIPSLGMCFCEENKEEGKWELVNPPVKTLTHGANAAFNWRNWISGN | not soluble
MDTPPTVFSIIIPVYNRPDEVRELLESLLIQTNSDFEVIIVEDGSSVCCDKEVDRVRELLRIQYVRVPNGGPAAARNIGARMAVGEYLLILDSDVVLPSGYIAAVKKRIEQMQADAFGGPDAAAEGFSPIQKAINYAMTSFFTTGGIRGGRRVRLDKFYPRSFNFGCKLSVYRQLGGFSEEMRFGEDIDFSLRLFKAGYNVCLFPEAFVFHKRRIDFKKFFRQVYNSGIARIHLQRRHPGSMKP | not soluble
TVSQLRSRITRFALAGRGMRETVTWSFISEKQALAFGGGQAQLKLVNPISADMSVMRPSLLPGLLVAAQRNADRGFPDFALFEVSNIYEDDTPDKQHRVAGGIRRGTEQFGGAGRFWNGNARAVDVFDAKADALAVLEACGLESGKVQIEVGAPDWYHPGRSGVIKLGSKIILGFFGVFHPATLEKLDISGPLCGFEIFL | not soluble
MSLGTQEDVLSLISGGFDSGVSSYLHIKRGSKVHYCFFNLGGPAHEIGVKQTAYYLWQKYGSSAKVRFIAIDFAPVVAEILEKIDDGQMGVVLKRMFMRTAGMVAEKFGIQALVTGEALGQVSSQTLTNLRHIDNVTDTLILRPLINWDKEDIIRLAREIGTEDFAKTMPEFCGVISKSPTVKAVKEKLEEEEAKFDFALLDQVVYNARQIDIRDIGKESLEKAPEVELVNSAEEGNAVVLDIRSPDEEDESPLEIVGVEVKHLPFYKLATQFGDLDQSKTYLLYCSRGVMSRLQALYLQEQGFNNVKVYREGHHHHHH | not soluble
MSKNDTEKILLDDLLFLQRAPYYESFSVYKIDSNKYIENENDSHIDRWLSMAVSGDDKTEAPTEFVIEPGGCLISLVVDRRLISLY | not soluble
MNIIDFNKPVKRSFRGNTAPAPPLEKVLTVILKTDVPVLMGICSDGLRSNSAILGGEFQAEYFSGSVLSGGGNVLVELSSELAFLETRFTLITQLGELINVECKGVLLMDEEGQQELQSGVWPISEGHYQCTCTPRFQVSLGPNDWLEKSAFIGKIDYIQRNETLISFYRMKL | not soluble

From the DeepSol protein solubility set
